From the supplement of paper PMC7125110
± gives the standard error. For some assays here: This sample holds only a part of the variants without activity.

B1: glmS ribozyme (parent)
chain: AUAAAAGCGCCAGAACUACAGAAAUGUAGUUGACGAGGAGGAGGUUUAUCGAAUUUUCGGCGGAUGCCUCCAAA

Tests used:
Conditions in all cases: with glucosamine-6-phosphate
[1] = variants of: B1; assay: kcat; higher = faster cleavage; RNA array
Summary of the method: (§1)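 Sequenced MiSeq chips were the platform: E. coli RNA polymerase transcribed barcoded ribozyme variants on them in situ, and a hybridised Cy3 probe tracked these at 37 °C. After glucosamine-6-phosphate (40 μM to 10 mM) in HEPES/KCl/Mg(OAc)2 buffer was flowed in, tiles were imaged over ~14 h. Signals normalised to baseline and to non-cleaving reference variants were reduced to per-tile medians and fit to one- or two-exponential decays to obtain kobs. kcat and KM were derived through weighted Michaelis–Menten fits across concentrations.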

[2] = variants of: B1; assay: KM; higher = weaker cofactor use; RNA array
Summary of the method: as §1

[3] = variants of: B1; assay: self-cleavage kobs at 40 uM GlcN6P; higher = faster cleavage; RNA array
Summary of the method: as §1

[4] = variants of: B1; assay: self-cleavage kobs at 160 uM GlcN6P; higher = faster cleavage; RNA array
Summary of the method: as §1

[5] = variants of: B1; assay: self-cleavage kobs at 640 uM GlcN6P; higher = faster cleavage; RNA array
Summary of the method: as §1

[6] = variants of: B1; assay: self-cleavage kobs at 2500 uM GlcN6P; higher = faster cleavage; RNA array
Summary of the method: as §1

[7] = variants of: B1; assay: self-cleavage kobs at 10000 uM GlcN6P; higher = faster cleavage; RNA array
Summary of the method: as §1

Variant | kcat [1] | KM [2] | self-cleavage kobs at 40 uM GlcN6P [3] | self-cleavage kobs at 160 uM GlcN6P [4] | self-cleavage kobs at 640 uM GlcN6P [5] | self-cleavage kobs at 2500 uM GlcN6P [6] | self-cleavage kobs at 10000 uM GlcN6P [7]
G13C G32A | 0.00943 ± 0.0032 s⁻¹ | 3.62 ± 1.6 mM | 0.000142 ± 1.5e-05 s⁻¹ | 0.000338 ± 6.2e-05 s⁻¹ | 0.00124 ± 0.00016 s⁻¹ | 0.00305 ± 0.00052 s⁻¹ | 0.00781 ± 0.00085 s⁻¹
G13C U55G | 0.000125 ± 2.7e-05 s⁻¹ |  |  |  |  | 6.8e-05 ± 9.4e-06 s⁻¹ | 9.6e-05 ± 1.2e-05 s⁻¹
G13C U55C | 9.82e-05 ± 8.2e-06 s⁻¹ | 1.5 ± 0.41 mM | < 1e-05 s⁻¹ |  | 3.6e-05 ± 1.6e-05 s⁻¹ | 5.66e-05 ± 1.3e-05 s⁻¹ | 8.8e-05 ± 1.5e-05 s⁻¹
G13U U57A | 2.08e-05 ± 4.9e-06 s⁻¹ |  | < 1e-05 s⁻¹ |  |  |  | 
G13U A15C | 0.000268 ± 2.8e-05 s⁻¹ | 2.79 ± 0.55 mM |  |  | 4.71e-05 ± 7.8e-06 s⁻¹ | 0.000142 ± 1.9e-05 s⁻¹ | 0.000202 ± 2.4e-05 s⁻¹
G13C C68A | 1.1e-05 ± 2.3e-06 s⁻¹ |  |  |  |  |  | 
A14C | 0.0129 ± 0.0023 s⁻¹ | 3.46 ± 0.74 mM | 0.000163 ± 2.7e-06 s⁻¹ | 0.000466 ± 1.5e-05 s⁻¹ | 0.00185 ± 6.7e-05 s⁻¹ | 0.00541 ± 0.00017 s⁻¹ | 0.00971 ± 0.00024 s⁻¹
G13A U45A | 0.00257 ± 0.00041 s⁻¹ | 6.91 ± 1.4 mM |  | 5.26e-05 ± 9.7e-06 s⁻¹ | 0.000237 ± 3.3e-05 s⁻¹ | 0.000649 ± 0.00012 s⁻¹ | 0.00152 ± 0.00022 s⁻¹
G13A G29C | 0.00011 ± 4.9e-06 s⁻¹ | 1.99 ± 0.24 mM |  |  |  | 5.98e-05 ± 1.3e-05 s⁻¹ | 9.3e-05 ± 1.7e-05 s⁻¹
G13U A39U | 0.0016 ± 0.0003 s⁻¹ | 4.77 ± 1.4 mM | 3.33e-05 ± 1.6e-05 s⁻¹ | 4.9e-05 ± 1.9e-05 s⁻¹ | 0.000197 ± 3.6e-05 s⁻¹ | 0.000513 ± 8.1e-05 s⁻¹ | 0.00112 ± 0.00016 s⁻¹
G13C C58A | 0.000354 ± 6.9e-05 s⁻¹ | 7.61 ± 2.7 mM |  |  | 4.16e-05 ± 9.2e-06 s⁻¹ | 8e-05 ± 9.7e-06 s⁻¹ | 0.000203 ± 1.3e-05 s⁻¹
G13C G43U C67A | 6.76e-05 ± 3.4e-05 s⁻¹ |  |  |  |  |  | 
G13U U65G C67G | 7.46e-05 ± 2.9e-06 s⁻¹ | 0.808 ± 0.17 mM |  |  |  | 6.05e-05 ± 2.3e-05 s⁻¹ | 6.81e-05 ± 1.5e-05 s⁻¹
G13U C67A | 0.000419 ± 9e-05 s⁻¹ | 2.04 ± 0.67 mM |  | 3.99e-05 ± 9e-06 s⁻¹ | 9.71e-05 ± 9.5e-06 s⁻¹ | 0.000225 ± 2.3e-05 s⁻¹ | 0.000504 ± 0.00015 s⁻¹
G13U C67G | < 1e-05 s⁻¹ |  | < 1e-05 s⁻¹ |  |  |  | 
G13U A42C U69G | 0.00178 ± 0.00081 s⁻¹ |  | 8.5e-05 ± 2.1e-05 s⁻¹ |  | 0.00028 ± 5.9e-05 s⁻¹ | 0.000852 ± 0.00026 s⁻¹ | 0.00141 ± 0.00021 s⁻¹
